Assay results as given in PMC4203122, “Insights into transcriptional regulation of β-D-N-acetylhexosaminidase, an N-glycan-processing enzyme involved in ripening-associated fruit softening”.

Key:
[1] = biological target: T1, RIN139N (GST-RIN, N-terminal) (Solanum lycopersicum, UniProt Q8S4L4 1-139); experiment: EMSA; 20 mM HEPES pH 7.5, 20% glycerol, 0.05 ug poly(dIdC), 2.5 mM EDTA, 2.5 mM DTT, 25 mM NaCl, plus 0.8 mM ZnCl2 (SlASR1) or 10 mM MgCl2 (RIN), 25 C, 30 min; 6% native PAGE 0.5x TBE; conditions: protein: recombinant; tags: N-terminal GST; chain copies: 2; label: 5'-32P
[2] = biological target: T1, RIN139N (GST-RIN, N-terminal); experiment: EMSA; intense signal; 20 mM HEPES pH 7.5, 20% glycerol, 0.05 ug poly(dIdC), 2.5 mM EDTA, 2.5 mM DTT, 25 mM NaCl, plus 0.8 mM ZnCl2 (SlASR1) or 10 mM MgCl2 (RIN), 25 C, 30 min; 6% native PAGE 0.5x TBE; conditions: protein: recombinant; tags: N-terminal GST; chain copies: 2; label: 5'-32P

T1 sequence (Q8S4L4 entry or part of it): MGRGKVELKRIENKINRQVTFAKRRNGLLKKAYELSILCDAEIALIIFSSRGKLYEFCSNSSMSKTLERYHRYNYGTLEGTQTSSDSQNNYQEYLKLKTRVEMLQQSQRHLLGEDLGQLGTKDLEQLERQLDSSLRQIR

B1: mCArG (26 bp, box 6 mutated) (dsDNA)
DNA 1: TTCATATTTCAAAATTTAATATTTTA
DNA 2: TAAAATATTAAATTTTGAAATATGAA
[1]
  binding result: no binding

B2: CArG (26 bp, box 6) (dsDNA)
DNA 1: TTCATATTCCAAAATTTGATATTTTA
DNA 2: TAAAATATCAAATTTTGGAATATGAA
[2]
  binding result: binds

B3: CArG box 5 (26 bp) (dsDNA)
DNA 1: CACAAAAACATAATTATGCTTCTTAC
DNA 2: GTAAGAAGCATAATTATGTTTTTGTG
[2]
  binding result: binds

B4: SlASR1 promoter CArG (26 bp) (dsDNA)
DNA 1: AAGCAAAACATAAAATTGACTTGAAT
DNA 2: ATTCAAGTCAATTTTATGTTTTGCTT
[1]
  binding result: binds
